From patent US20040143095A1

Columns and labels:
[1] = target: mouse CRF receptor type 2β (mouse) (UniProt Q60748); test: radioligand displacement ([125I-Tyr0,Glu1,Nle17]-sauvagine), CHO membranes
[2] = target: rat CRF receptor type 2α (rat) (UniProt P47866); test: as above
Sequence of rat CRF receptor type 2α (rat) (P47866 20-411): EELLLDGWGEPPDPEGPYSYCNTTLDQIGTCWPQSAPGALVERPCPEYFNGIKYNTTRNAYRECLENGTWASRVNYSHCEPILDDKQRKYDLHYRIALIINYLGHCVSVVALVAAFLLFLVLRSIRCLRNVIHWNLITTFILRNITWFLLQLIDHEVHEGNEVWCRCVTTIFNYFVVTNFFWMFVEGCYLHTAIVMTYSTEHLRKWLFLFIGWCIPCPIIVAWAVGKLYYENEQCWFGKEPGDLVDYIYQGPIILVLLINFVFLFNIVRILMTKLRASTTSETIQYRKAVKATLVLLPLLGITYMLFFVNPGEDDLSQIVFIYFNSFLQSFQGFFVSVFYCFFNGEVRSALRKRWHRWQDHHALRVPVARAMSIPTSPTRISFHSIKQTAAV

Row | Ki [1] | Ki [2] | Substance
1 | 5.2 nM | 10.1 nM | CRF (rat/human) (from UniProt P06850 154-194) (peptide)
2 | 0.62 nM | 2.2 nM | Urocortin (rat) (from UniProt P55090 81-120) (peptide)
